± gives the standard deviation of the averaged measurements.
Each sequence was assayed on Saccharomyces cerevisiae (assay: protein stability index of tFT-peptide fusion (C-terminal peptide) (PSI (0-1 scale)); higher = more stable (slower turnover)). Settings: genetic background: wild type; temperature: 30 C.
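Note: PSI is a weighted mean of sequencing reads over stability bins, variants kept only with over 10 reads, mCherry proximal and sfGFP distal, peptide attached via GGGS linker.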

Sequence | protein stability index
PCAPPTPAPLHP | 0.6687 ± 0.0048
PCDCAHPVLRPM | 0.634 ± 0.069
PCHPRPPPASPP | 0.692 ± 0.096
PCHSPATRTLPC | 0.6824 ± 0.0025
PCLSRFPGSPFL | 0.6896 ± 0.0042
PCPLPSPHPPPR | 0.717 ± 0.046
PCPPHILAPPPS | 0.713 ± 0.0091
PDGFTFVFSPES | 0.648 ± 0.038
PDPARSPLTSSY | 0.6569 ± 0.0024
PDPGPPYPTPTA | 0.708 ± 0.066
PDPPPLLPRLSL | 0.701 ± 0.016
PDPSTRASDRKR | 0.648 ± 0.017
PDPSVERFRGLC | 0.758 ± 0.095
PDRGLRLKRILP | 0.5675 ± 0.0017
PDRLPPPLLPPL | 0.718 ± 0.028
PDRYPPPPGRRG | 0.704 ± 0.014
PDSHPPAPPSPP | 0.704 ± 0.031
PEAEPPPPPPPP | 0.552 ± 0.028
PEGPTPPSLKLS | 0.6162 ± 0.0052
PEMCEKRIKTPT | 0.634 ± 0.031
PEQKKRKVKIKK | 0.686 ± 0.16
PERAPASRWTLS | 0.7362 ± 0.0049
PESPLFPPLLPS | 0.6599 ± 0.0018
PESRAESAKPRD | 0.667 ± 0.019
PEVRTNKQHQER | 0.746 ± 0.055
PFAGLFFFFVPF | 0.58 ± 0.033

Sequence | protein stability index
PFAPFIHNFGCT | 0.713 ± 0.023
PFAYFSRFLYFP | 0.633 ± 0.03
PFGSSPLCGSSF | 0.683 ± 0.032
PFGTFFFPSFLL | 0.683 ± 0.0032
PFIDCEHIRGFN | 0.735 ± 0.046
PFIPPPRFPPPV | 0.835 ± 0.074
PFLIPPRPFSFP | 0.709 ± 0.1
PFLRLLQTVGST | 0.593 ± 0.024
PFLTSPPPLPLH | 0.632 ± 0.031
PFMFLSSCSGFF | 0.735 ± 0.019
PFPAPPPPPPPP | 0.678 ± 0.064
PFPLSPPPPPLD | 0.761 ± 0.045
PFPPPPVPHARR | 0.775 ± 0.22
PFPPPTPPPPLP | 0.751 ± 0.077
PFPPRRPSATTL | 0.727 ± 0.045
PFPSFFFCCISL | 0.507 ± 0.0075
PFRPPPLLPFSP | 0.799 ± 0.13
PFSGPVYSHNDV | 0.738 ± 0.08
PFSLIFSFFSEV | 0.7487 ± 0.0047
PFSSPPPLSLPP | 0.7308 ± 0.0011
PGALILSNRFFS | 0.685 ± 0.041
PGAPPPASPPST | 0.714 ± 0.047
PGCNLPLVPPRL | 0.701 ± 0.018
PGFFRLSLFPFA | 0.713 ± 0.0083
PGGLHHGCSTPA | 0.724 ± 0.0087
PGGQGVRTDRPQ | 0.678 ± 0.025

Sequence | protein stability index
PGGTDGYSGLEK | 0.689 ± 0.011
PGIGMVCAVAEG | 0.687 ± 0.0082
PGLSLPLPPPRP | 0.703 ± 0.035
PGLTAVVYRPAD | 0.724 ± 0.04
PGPHGVVPTGNE | 0.6666 ± 0.0056
PGPPPPPPALLP | 0.658 ± 0.056
PGPPSTAPHLPE | 0.659 ± 0.018
PGPPTPPPPLYP | 0.706 ± 0.012
PGPTNSSLTASD | 0.7667 ± 0.0037
PGSCAYHIFRFR | 0.583 ± 0.0062
PGSLPPPPPPPP | 0.716 ± 0.016
PGSLSLSPLLPS | 0.758 ± 0.037
PGTGAASGTGGA | 0.689 ± 0.012
PGTLLHPLSVGR | 0.668 ± 0.019
PGWDSHRKILSQ | 0.68 ± 0.0083
PHADFALFPFSP | 0.785 ± 0.036
PHAERASPDGLS | 0.664 ± 0.063
PHASLAPPLPPP | 0.5801 ± 0.0042
PHCPPPPSLSPP | 0.791 ± 0.094
PHFLNNRNTIRR | 0.714 ± 0.04
PHHAPRPPPFAG | 0.646 ± 0.05
PHLPSSPSPYSP | 0.689 ± 0.0043
PHPAPPPSPSPS | 0.715 ± 0.033
PHPATLPPPAPT | 0.699 ± 0.032
PHPGVPPTFLSL | 0.657 ± 0.11
PHPLPSPSPPPH | 0.69228 ± 0.00045

Sequence | protein stability index
PHPPPVPAPPPP | 0.663 ± 0.008
PHPPSCPLTPPP | 0.666 ± 0.015
PHPRPPLAPPLT | 0.688 ± 0.038
PHRPPPCLPFGS | 0.728 ± 0.039
PHSGVVVRCPSG | 0.704 ± 0.022
PHSPLPAHPPCR | 0.745 ± 0.14
PHSPPSLSPTPP | 0.685 ± 0.06
PHSPSSPTIPSS | 0.7363 ± 0.0069
PHSSPSHRLSLP | 0.722 ± 0.035
PHTGVKRDIENE | 0.693 ± 0.092
PIDYRPEPYALP | 0.775 ± 0.034
PIGFSHISFSPS | 0.645 ± 0.1
PINALLHNKRES | 0.721 ± 0.082
PIPPHGTPPAAY | 0.694 ± 0.036
PIPPPAPPPAPP | 0.6778 ± 0.0036
PIPPPPRACGPS | 0.7 ± 0.02
PIPSPAPLPPRP | 0.675 ± 0.0073
PIRPQSSVSLKQ | 0.64958 ± 0.00064
PIRPSPPVLPPL | 0.647 ± 0.11
PISLFLSSSAPL | 0.729 ± 0.053
PISTHYGSAVFM | 0.692 ± 0.029
PITFPPSLPPPP | 0.666 ± 0.045
PIVLALPTFPPL | 0.716 ± 0.048
PIWRLVMRCCRS | 0.575 ± 0.022
PKKGKKKLREKS | 0.728 ± 0.051
PKKTTIQRDKTN | 0.607 ± 0.027

Sequence | protein stability index
PKNNHTKKKTGQ | 0.677 ± 0.0093
PKPNRAHSTTHR | 0.691 ± 0.008
PKRTHDPAPKTT | 0.70897 ± 0.00058
PKRTTHIGRIHE | 0.6875 ± 0.006
PKSGRAVMQGEG | 0.631 ± 0.071
PKSRTLKDITIF | 0.684 ± 0.024
PLAPPRSPHLPP | 0.673 ± 0.041
PLAPSSHLHPSP | 0.75 ± 0.0015
PLATLIPPLIPS | 0.554 ± 0.084
PLCLPALPPPLP | 0.676 ± 0.097
PLFLLPSSPPAS | 0.757 ± 0.06
PLFLPALPPPLP | 0.687 ± 0.11
PLFPACYFHPFD | 0.746 ± 0.032
PLFYSLCFFCGL | 0.667 ± 0.044
PLGGLTLNIIEC | 0.701 ± 0.0089
PLGPPPPPPLPS | 0.7222 ± 0.0058
PLHHPPSPRLPP | 0.617 ± 0.018
PLHLYPHPPTHS | 0.698 ± 0.078
PLHSPPSRPCQL | 0.691 ± 0.065
PLHVSLVRFGCP | 0.633 ± 0.032
PLHYPTPCHPLP | 0.726 ± 0.052
PLKTDSVPEFTA | 0.5811 ± 0.0033
PLLASRFLQVGF | 0.678 ± 0.0074
PLLLHHPPPRVP | 0.666 ± 0.029
PLLPLPPNPSPP | 0.681 ± 0.022
PLLPSPPLLLPS | 0.819 ± 0.12

Sequence | protein stability index
PLLSYSPPAPPP | 0.664 ± 0.024
PLLTPPFFPPPP | 0.7588 ± 0.0053
PLNQKPPDWPTQ | 0.734 ± 0.015
PLNSNSYDASPL | 0.658 ± 0.052
PLPALPPPPRGP | 0.636 ± 0.026
PLPAPPLPPRSP | 0.703 ± 0.012
PLPDPPPTPSGT | 0.682 ± 0.058
PLPGPSPPPAPP | 0.648 ± 0.044
PLPHPPPPPPLP | 0.768 ± 0.026
PLPINAGVRITP | 0.671 ± 0.1
PLPLHLATPHLF | 0.694 ± 0.05
PLPLPLPSRPRP | 0.653 ± 0.044
PLPMPHPRSRST | 0.673 ± 0.014
PLPPCSARPPPR | 0.7657 ± 0.0042
PLPPDPPCPPPP | 0.651 ± 0.072
PLPPLPPPLPAP | 0.705 ± 0.052
PLPPLPSTHPTL | 0.698 ± 0.035
PLPPPLPNPPPS | 0.667 ± 0.074
PLPPPLPPPGPH | 0.731 ± 0.053
PLPPPPARLPSP | 0.703 ± 0.017
PLPPPPHPLLLL | 0.681 ± 0.024
PLPPPPRLPPRH | 0.677 ± 0.04
PLPPPPYPPTLL | 0.592 ± 0.016
PLPPPSPSSLSP | 0.713 ± 0.074
PLPPRSPPRRPS | 0.634 ± 0.079
PLPPSAPPLPPS | 0.778 ± 0.091

Sequence | protein stability index
PLPSFPFPRPSS | 0.634 ± 0.037
PLPSHSRSRHPR | 0.744 ± 0.075
PLPSLLLLPPFP | 0.701 ± 0.058
PLPSPPPPFLSL | 0.71 ± 0.048
PLPSPPPSATSL | 0.602 ± 0.045
PLPTPTPPPPAP | 0.734 ± 0.028
PLPTSRKSFGLV | 0.665 ± 0.06
PLPWIFHCRAPL | 0.719 ± 0.048
PLQEHYRQIFPD | 0.71 ± 0.0044
PLQFLPPLPCVS | 0.539 ± 0.039
PLQFSLADEFST | 0.705 ± 0.02
PLRFSSFSFPGW | 0.739 ± 0.13
PLRRPPRLPAPP | 0.7 ± 0.11
PLRTRESIGARG | 0.707 ± 0.038
PLSASPLPPFSR | 0.734 ± 0.11
PLSCDSPFVNPT | 0.737 ± 0.042
PLSFPALFSPLS | 0.684 ± 0.034
PLSHSPPAPSSP | 0.658 ± 0.026
PLSLICLLKSYL | 0.708 ± 0.025
PLSLPLSLLCPP | 0.698 ± 0.051
PLSLPPPSPRPP | 0.657 ± 0.013
PLSLSVPPAFFI | 0.538 ± 0.14
PLSPLALLPLRF | 0.694 ± 0.065
PLSPLSLSPVAP | 0.62 ± 0.026
PLSPPPPSHIPP | 0.653 ± 0.023
PLTNPPCLTKYP | 0.793 ± 0.033

Sequence | protein stability index
PLTPPPAVHTYL | 0.72 ± 0.037
PLTPVSPSPNPV | 0.648 ± 0.042
PLTSNTSPPPMT | 0.618 ± 0.072
PLVQSSCCRNYY | 0.7 ± 0.04
PLVVPPSPRPPP | 0.735 ± 0.063
PLWAVRPLLPPE | 0.677 ± 0.016
PMADACPAPPPQ | 0.643 ± 0.041
PMPGATDCQRGC | 0.615 ± 0.053
PNFPEPSLTDAL | 0.716 ± 0.04
PNGSRPAHGVKN | 0.646 ± 0.032
PNLPRHPFPPSS | 0.74 ± 0.011
PNLTYNTLRVVL | 0.638 ± 0.04
PNNANHIKHRQY | 0.6722 ± 0.0012
PNPEKPPGAPGQ | 0.63 ± 0.087
PNPHDPQLPPPH | 0.709 ± 0.05
PNPHGRPSIPAL | 0.65 ± 0.039
PNPIHHPTSTTA | 0.672 ± 0.053
PNQTRPHPHHNL | 0.69 ± 0.02
PNRSPPLPRPLM | 0.693 ± 0.0074
PPAICSFLSPPF | 0.655 ± 0.017
